Experimental data reported in the supplement of paper PMC10065799, “High-throughput profiling of sequence recognition by tyrosine kinases and SH2 domains using bacterial peptide display” (eLife, 2023).

Columns and labels:
SHP2-C SH2 = experiment: SH2 binding enrichment of the phosphorylated peptide, bacterial display (enrichment ratio); higher = better substrate or ligand; peptides without Tyr show the background
Grb2 SH2 = Grb2 SH2 (UniProt P62993); experiment: as above
c-Src SH2 = experiment: as above
EPHB2 = EPHB2 (UniProt P29323); experiment: phosphorylation enrichment, bacterial display (enrichment ratio); higher = better substrate or ligand; peptides without Tyr show the background
Sequence of EPHB2 (P29323 whole entry, looked up): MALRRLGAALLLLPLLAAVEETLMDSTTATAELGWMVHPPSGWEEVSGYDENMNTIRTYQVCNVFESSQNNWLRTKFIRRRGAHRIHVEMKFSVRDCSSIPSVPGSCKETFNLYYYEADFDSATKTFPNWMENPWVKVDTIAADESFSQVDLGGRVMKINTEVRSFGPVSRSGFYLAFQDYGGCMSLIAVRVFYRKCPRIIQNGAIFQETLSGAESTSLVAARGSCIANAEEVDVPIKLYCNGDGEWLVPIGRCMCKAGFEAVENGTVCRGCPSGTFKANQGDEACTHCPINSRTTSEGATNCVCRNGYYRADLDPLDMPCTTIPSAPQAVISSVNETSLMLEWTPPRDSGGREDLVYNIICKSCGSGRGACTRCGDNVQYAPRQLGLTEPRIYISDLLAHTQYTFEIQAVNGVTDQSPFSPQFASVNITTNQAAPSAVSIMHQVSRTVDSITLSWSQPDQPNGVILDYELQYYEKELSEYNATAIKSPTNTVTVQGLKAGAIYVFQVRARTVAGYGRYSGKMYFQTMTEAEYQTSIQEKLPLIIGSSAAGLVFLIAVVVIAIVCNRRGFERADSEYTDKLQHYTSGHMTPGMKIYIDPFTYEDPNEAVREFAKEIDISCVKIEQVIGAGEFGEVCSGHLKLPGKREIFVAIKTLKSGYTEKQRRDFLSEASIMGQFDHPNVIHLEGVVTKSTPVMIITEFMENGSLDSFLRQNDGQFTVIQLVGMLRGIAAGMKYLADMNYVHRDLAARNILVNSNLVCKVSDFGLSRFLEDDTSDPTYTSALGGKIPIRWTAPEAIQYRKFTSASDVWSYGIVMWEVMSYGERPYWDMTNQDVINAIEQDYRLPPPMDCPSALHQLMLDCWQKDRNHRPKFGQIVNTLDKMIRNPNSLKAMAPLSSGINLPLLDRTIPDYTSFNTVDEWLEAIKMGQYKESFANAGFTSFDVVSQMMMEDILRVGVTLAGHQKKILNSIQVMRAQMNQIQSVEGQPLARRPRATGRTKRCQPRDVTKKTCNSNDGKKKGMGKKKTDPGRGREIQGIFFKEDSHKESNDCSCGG

AncSZ = experiment: as above
Fyn = Fyn (UniProt P06241); experiment: as above
Hck = Hck (UniProt P08631); experiment: as above
c-Abl (mouse) = experiment: as above
Fer (mouse) = experiment: as above
MERTK = MERTK (UniProt Q12866); experiment: as above
FGFR1 = FGFR1 (UniProt P11362); experiment: as above
Sequence of FGFR1 (P11362 whole entry, looked up): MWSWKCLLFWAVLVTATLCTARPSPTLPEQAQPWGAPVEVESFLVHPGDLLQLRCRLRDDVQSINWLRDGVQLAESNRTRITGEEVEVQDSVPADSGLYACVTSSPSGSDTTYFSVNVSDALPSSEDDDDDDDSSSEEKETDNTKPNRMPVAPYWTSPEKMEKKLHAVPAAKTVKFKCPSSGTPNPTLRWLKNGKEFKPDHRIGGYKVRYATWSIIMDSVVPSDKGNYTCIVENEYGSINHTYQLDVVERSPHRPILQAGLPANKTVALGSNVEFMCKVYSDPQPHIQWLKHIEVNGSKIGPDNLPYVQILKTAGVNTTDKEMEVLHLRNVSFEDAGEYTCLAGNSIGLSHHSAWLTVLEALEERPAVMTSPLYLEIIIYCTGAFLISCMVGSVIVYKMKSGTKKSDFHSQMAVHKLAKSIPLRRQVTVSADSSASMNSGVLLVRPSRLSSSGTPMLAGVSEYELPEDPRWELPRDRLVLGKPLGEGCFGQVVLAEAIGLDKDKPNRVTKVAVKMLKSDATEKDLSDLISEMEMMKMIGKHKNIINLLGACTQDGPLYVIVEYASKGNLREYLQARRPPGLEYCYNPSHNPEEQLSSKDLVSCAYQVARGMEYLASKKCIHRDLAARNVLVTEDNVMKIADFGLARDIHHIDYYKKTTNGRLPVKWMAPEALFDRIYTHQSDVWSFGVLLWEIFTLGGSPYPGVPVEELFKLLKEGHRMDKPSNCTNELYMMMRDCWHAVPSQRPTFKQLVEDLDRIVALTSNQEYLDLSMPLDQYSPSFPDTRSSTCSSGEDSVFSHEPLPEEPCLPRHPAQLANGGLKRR

EPHB1 = EPHB1 (UniProt P54762); experiment: as above
Sequence of EPHB1 (P54762 whole entry, looked up): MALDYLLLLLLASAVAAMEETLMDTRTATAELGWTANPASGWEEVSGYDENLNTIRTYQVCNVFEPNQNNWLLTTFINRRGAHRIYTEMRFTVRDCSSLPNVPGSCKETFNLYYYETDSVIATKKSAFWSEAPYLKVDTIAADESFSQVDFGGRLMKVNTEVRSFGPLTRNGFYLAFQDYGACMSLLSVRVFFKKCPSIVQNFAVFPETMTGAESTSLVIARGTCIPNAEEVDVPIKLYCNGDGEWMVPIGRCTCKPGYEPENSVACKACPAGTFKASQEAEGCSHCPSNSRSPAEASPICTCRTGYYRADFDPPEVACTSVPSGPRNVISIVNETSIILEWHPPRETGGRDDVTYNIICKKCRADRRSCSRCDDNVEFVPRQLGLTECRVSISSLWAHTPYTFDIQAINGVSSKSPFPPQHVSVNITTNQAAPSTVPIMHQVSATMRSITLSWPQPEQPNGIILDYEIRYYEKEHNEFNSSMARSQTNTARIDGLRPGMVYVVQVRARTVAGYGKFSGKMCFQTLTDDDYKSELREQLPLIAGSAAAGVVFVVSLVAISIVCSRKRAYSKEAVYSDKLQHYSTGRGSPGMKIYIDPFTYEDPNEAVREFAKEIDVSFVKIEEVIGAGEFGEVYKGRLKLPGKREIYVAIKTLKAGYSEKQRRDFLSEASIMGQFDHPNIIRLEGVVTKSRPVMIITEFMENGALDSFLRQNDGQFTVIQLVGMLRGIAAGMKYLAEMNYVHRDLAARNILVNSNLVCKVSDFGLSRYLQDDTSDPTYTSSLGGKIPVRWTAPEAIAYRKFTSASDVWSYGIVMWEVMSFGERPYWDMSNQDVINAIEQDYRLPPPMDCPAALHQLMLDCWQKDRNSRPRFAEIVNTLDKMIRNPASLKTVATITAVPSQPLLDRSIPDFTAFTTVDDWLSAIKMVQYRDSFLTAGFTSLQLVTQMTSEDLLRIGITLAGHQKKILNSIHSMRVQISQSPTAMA

FGFR3 = FGFR3 (UniProt P22607); experiment: as above
Sequence of FGFR3 (P22607 whole entry, looked up): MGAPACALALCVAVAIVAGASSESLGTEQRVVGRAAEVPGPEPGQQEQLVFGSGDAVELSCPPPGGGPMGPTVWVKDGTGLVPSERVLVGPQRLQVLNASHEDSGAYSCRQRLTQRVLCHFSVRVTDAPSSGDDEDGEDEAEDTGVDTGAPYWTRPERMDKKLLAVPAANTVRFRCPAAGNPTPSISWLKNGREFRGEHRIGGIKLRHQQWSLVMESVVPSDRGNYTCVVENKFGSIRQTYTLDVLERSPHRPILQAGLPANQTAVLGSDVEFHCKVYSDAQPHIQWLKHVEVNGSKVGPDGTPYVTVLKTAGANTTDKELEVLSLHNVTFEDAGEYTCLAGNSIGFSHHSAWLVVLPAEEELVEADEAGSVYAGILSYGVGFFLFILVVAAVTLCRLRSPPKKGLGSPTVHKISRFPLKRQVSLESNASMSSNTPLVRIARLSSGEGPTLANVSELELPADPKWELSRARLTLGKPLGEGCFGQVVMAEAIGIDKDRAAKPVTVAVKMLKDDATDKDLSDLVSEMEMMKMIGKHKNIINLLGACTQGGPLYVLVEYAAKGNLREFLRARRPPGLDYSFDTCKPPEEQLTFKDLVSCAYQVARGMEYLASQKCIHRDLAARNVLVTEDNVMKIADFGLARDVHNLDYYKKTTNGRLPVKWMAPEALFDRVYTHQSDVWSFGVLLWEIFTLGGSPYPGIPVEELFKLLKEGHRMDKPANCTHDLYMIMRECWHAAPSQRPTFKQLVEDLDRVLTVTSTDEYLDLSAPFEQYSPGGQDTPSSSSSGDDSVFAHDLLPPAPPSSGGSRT

Jak2 = Jak2 (UniProt O60674); experiment: as above
Sequence of Jak2 (O60674 whole entry, looked up): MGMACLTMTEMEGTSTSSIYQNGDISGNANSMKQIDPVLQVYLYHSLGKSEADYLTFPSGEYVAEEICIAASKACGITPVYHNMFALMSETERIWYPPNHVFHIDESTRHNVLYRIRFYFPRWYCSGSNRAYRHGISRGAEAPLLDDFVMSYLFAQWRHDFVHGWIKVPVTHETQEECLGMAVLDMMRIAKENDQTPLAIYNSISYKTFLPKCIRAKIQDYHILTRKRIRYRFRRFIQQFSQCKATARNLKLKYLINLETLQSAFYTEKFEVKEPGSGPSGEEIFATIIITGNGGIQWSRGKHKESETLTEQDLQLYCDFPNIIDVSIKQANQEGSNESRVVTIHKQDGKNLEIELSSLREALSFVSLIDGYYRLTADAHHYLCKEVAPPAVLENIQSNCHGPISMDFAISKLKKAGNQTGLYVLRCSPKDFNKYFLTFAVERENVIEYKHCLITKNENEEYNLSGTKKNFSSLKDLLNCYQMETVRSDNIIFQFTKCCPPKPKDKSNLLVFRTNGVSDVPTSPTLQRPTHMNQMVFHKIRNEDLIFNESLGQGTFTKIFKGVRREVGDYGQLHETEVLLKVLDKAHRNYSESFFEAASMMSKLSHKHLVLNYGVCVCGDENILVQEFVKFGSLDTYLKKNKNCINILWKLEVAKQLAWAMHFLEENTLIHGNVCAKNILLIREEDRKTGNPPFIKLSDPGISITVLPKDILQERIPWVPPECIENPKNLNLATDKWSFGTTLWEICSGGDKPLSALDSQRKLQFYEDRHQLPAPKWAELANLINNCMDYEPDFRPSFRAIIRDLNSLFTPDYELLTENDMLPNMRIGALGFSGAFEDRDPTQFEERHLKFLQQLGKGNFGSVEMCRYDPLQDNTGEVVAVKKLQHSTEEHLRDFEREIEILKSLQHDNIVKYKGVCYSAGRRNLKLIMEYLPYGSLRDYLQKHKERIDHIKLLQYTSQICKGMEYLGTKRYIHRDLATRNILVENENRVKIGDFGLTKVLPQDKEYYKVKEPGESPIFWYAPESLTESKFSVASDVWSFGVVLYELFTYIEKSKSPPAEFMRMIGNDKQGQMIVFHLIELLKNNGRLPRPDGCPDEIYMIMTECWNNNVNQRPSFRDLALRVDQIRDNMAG

c-Src = experiment: as above
Fes = Fes (UniProt P07332); experiment: as above
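Wherever SH2 binding enrichment of the phosphorylated peptide, bacterial display is given: peptide library displayed on the E. coli surface as eCPX fusions, selected cells deep-sequenced, score is each peptide's frequency after selection divided by its frequency in the input.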
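Wherever phosphorylation enrichment, bacterial display is given: 11-residue human phosphosite peptides and single-mutation variants displayed on the E. coli surface, counted by deep sequencing, each peptide's frequency after selection divided by its frequency in the unselected input library; frequency after pTyr selection over input frequency; kinase dosed for 20-30% of maximal phosphorylation in three min.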

Sequence of Grb2 SH2 (P62993 whole entry, looked up): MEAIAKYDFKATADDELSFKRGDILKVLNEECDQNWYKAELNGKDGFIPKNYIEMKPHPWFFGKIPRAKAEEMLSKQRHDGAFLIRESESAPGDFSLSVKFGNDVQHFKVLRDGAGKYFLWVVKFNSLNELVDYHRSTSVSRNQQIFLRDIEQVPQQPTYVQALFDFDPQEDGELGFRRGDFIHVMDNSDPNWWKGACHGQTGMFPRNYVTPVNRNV

Sequence	SH2 binding enrichment (SHP2-C SH2)	SH2 binding enrichment (Grb2 SH2)	SH2 binding enrichment (c-Src SH2)	phosphorylation enrichment (EPHB2)	phosphorylation enrichment (AncSZ)	phosphorylation enrichment (Fyn)	phosphorylation enrichment (Hck)	phosphorylation enrichment (c-Abl (mouse))	phosphorylation enrichment (Fer (mouse))	phosphorylation enrichment (MERTK)	phosphorylation enrichment (FGFR1)	phosphorylation enrichment (EPHB1)	phosphorylation enrichment (FGFR3)	phosphorylation enrichment (Jak2)	phosphorylation enrichment (c-Src)	phosphorylation enrichment (Fes)
ETEMLYGSARR [PRC1_Y464_P468R]	0.871	0.853	0.495	0.451	0.886	2.66	4.55	0.638	1.27	0.38	0.429	0.416	0.601	0.521	2.81	0.78
QCTSAYLLQPE [NANS_Y188_P189L]	0.922	0.793	0.473	0.727	1.41	1.01	0.596	1.24	0.611	0.785	0.733	0.555	1.21	1.19	1.4	1.49
ANYTEYVATRW [CDKL5_Y171]	0.998	0.915	0.515	9.4	1.04	0.945	0.886	0.948	0.601	1.05	2.97	8.12	2.27	0.737	1.11	0.96
GARGRYVMGGP [TNK1_Y277]	0.548	0.512	0.435	0.389	0.7	0.332	0.379	0.376	0.405	0.546	0.481	0.504	0.419	0.457	0.421	0.555
ADFPDYKFRPR [SOX11_Y116_YF]	0.544	0.968	0.614	0.422	1.07	0.472	0.501	0.403	0.369	0.413	0.455	0.378	0.58	0.728	0.357	0.697
SCRENYSFSEE [LEMD3_Y258_D260Y_YF]	0.716	1.05	0.807	0.725	1.1	0.501	0.509	0.791	0.53	0.38	0.452	0.709	0.75	0.988	0.588	1.08
EVRAQYEEIAQ [KRT76_Y361]	0.623	0.666	22.5	0.641	1.19	0.526	0.614	0.92	0.977	0.404	0.611	0.697	0.98	1.07	0.388	1.22
TLEKFYFAFPG [SLC1A1_Y51]	0.92	1	0.589	2.85	1.53	1.9	1.62	7.49	0.496	7.49	8.55	1.98	6.62	3.54	3.75	1.18
